Assay results taken from patent publication JP2015180231A.

Molecular target: RSV融合(F)タンパク質 (RSV fusion (F) protein), on RSV-infected HEp2 cells (respiratory syncytial virus (RSV)) (UniProt P03420)
Experiment: cell-based or functional assay

UniProt P03420, sequence (P03420 26-574): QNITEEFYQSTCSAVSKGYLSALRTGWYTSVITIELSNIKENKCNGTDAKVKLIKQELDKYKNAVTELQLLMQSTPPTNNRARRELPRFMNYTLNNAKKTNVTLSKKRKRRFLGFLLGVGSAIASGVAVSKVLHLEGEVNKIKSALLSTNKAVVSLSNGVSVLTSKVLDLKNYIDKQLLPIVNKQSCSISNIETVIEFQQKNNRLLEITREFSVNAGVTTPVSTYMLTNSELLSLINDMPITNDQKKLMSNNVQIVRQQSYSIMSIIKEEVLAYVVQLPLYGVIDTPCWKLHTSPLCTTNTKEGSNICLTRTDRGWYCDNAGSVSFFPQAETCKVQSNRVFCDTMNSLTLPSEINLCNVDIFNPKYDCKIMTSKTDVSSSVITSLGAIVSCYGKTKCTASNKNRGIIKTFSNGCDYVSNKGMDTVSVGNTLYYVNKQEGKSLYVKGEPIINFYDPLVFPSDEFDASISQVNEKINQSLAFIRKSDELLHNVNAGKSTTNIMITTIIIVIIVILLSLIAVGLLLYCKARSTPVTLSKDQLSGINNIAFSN

For “抗RSV抗体D25 (anti-RSV monoclonal antibody D25)”, the RSV-A2ウイルスに対して最大活性の半分を阻害する濃度(IC50) (microneutralisation) was 2.1 ng/mL.
